Measured values reported in article PMC9523886.
pKd: −log10 of the molar value. Like-named read-outs stand apart in the source and are kept apart here.

Tests used:
Assay in all cases: FCCS
[1] = target: GFP-DscIA (Discoidin I, paralog A, fused with GFP) (D. discoideum)
[2] = target: GFP-DscIA (Discoidin I, paralog A, fused with GFP) (D. discoideum); remark: listed apart in the source
[3] = target: GFP-DscIA (Discoidin I, paralog A, fused with GFP) (D. discoideum); remark: listed apart in the source

pKd [1]: 5.55
pKd [2]: 5.72
pKd [3]: 5.54
Substance: mCh-MyoII (mCherry-tagged Myosin II) (from UniProt P08799 1-2116) (natural protein)
